Assay results as given in paper PMC4649674, “Structural insights into HetR−PatS interaction involved in cyanobacterial pattern formation” (Scientific Reports, 2015).

Key:
HetR mutant E253A = molecular target: T1, HetR mutant E253A (Nostoc sp., UniProt P27709, E253A); assay: ITC binding of PatS6 to HetR mutant E253A; set-up: species or system Anabaena sp. PCC 7120; conditions: 25 °C, 1 M NaCl, 5% (v/v) glycerol, 10 mM Tris-Cl, pH 7.8, protein 50 μM, PatS6 750 μM
T1 construct: 15 times (150 or 750 μM) to that of the full-length protein or 40 times (2 mM) to that of HetRHood; six-histidine tag (N); made in house; host or cells: Escherichia coli Rosetta (DE3)
Procedure: (§1) The selenium-methionine-labeled HetR (SeMet HetR) was expressed in E. coli strain B834 (DE3) (Novagen, Madison). Transformed cells were first cultured in 2 × YT medium at 37 °C overnight, then harvested and washed twice with the M9 medium. Then the cells were cultured in SeMet medium (M9 medium with 50 mg/l SeMet and other essential amino acids at 50 mg/l) to an OD600 nm of approximately 1.0. The following steps in protein expression and purification were the same as those for the native protein. Site-directed mutagenesis was performed using the QuickChange site-directed mutagenesis kit (Stratagene, La Jolla) with the plasmid encoding the wild-type HetR as the template. The mutant protein was expressed, purified and stored in the same manner as the wild-type protein.
(§2) The related Kd values are
(§3) calculated and shown above the figures. ND stands for “not detectable”.

[1] = molecular target: T2, HetR double mutant D270A/D278A (Nostoc sp., UniProt P27709, D270A/D278A); assay: ITC binding of PatS6 to HetR double mutant D270A/D278A; set-up: species or system Anabaena sp. PCC 7120; conditions: 25 °C, 1 M NaCl, 5% (v/v) glycerol, 10 mM Tris-Cl, pH 7.8, protein 50 μM, PatS6 750 μM
T2 construct: 15 times (150 or 750 μM) to that of the full-length protein or 40 times (2 mM) to that of HetRHood; six-histidine tag (N); made in house; host or cells: Escherichia coli Rosetta (DE3)
Procedure: as §1, §2, §3

HetR = conditions: cited from earlier work
Text: Heterocyst pattern was first speculated to be controlled by a pentapeptide RGSGR (designated as PatS5), a motif which was identified first as the C-terminal five residues of PatS[16], and later within a putative ketoacyl reductase HetN[17].

[2] = system: E253D mutant strain (hetR); set-up: method as in PMID 21942265; conditions: in vivo; cited from earlier work
[3] = molecular target: PatS5 (Nostoc sp. PCC 7120); conditions: cited from earlier work
[4] = molecular target: PatS6 (Nostoc sp. PCC 7120); conditions: cited from earlier work
[5] = molecular target: T3, HetR (wild type, full-length) from Anabaena sp. PCC 7120 (Anabaena sp. PCC 7120, UniProt P27709 1-299); assay: ITC; iTC200, 25 °C; protein in the sample cell (10 or 50 μM), PatS6 in the syringe (150 or 750 μM; 2 mM for HetR_(Hood)); 1 M NaCl, 5% (v/v) glycerol, 10 mM Tris-Cl, pH 7.8; conditions: both partners purified
T3 construct: HetR, transcription factor of Anabaena sp; PCC 7120; DBD 1-98, flap domain 99-216, hood domain 217-299; Intertwined homodimer in the crystal with 21-bp hetP promoter DNA; A SeMet-labelled form (E. coli B834) was used for phasing only; also called wild-type HetR; full-length HetR; source: E. coli Rosetta (DE3), purified (Ni-NTA, Superdex 75)
T3 sequence (looked up): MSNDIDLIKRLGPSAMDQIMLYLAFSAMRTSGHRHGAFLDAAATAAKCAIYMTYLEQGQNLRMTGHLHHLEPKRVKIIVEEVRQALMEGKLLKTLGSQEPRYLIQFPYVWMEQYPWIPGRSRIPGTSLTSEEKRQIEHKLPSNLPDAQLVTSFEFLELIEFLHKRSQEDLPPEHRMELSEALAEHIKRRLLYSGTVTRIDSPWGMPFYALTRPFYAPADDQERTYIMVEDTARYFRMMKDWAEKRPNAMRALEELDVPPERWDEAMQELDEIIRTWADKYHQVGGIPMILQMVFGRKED

HetR R223W = molecular target: T4, HetR R223W (Anabaena sp. PCC 7120, UniProt P27709 1-299, R223W); assay: as above; conditions: both partners purified
T4 construct: HetR of Anabaena sp; PCC 7120, point mutant made from the plasmid of wild-type HetR; source: E. coli, purified in the same manner as the wild-type protein
T4 sequence (looked up): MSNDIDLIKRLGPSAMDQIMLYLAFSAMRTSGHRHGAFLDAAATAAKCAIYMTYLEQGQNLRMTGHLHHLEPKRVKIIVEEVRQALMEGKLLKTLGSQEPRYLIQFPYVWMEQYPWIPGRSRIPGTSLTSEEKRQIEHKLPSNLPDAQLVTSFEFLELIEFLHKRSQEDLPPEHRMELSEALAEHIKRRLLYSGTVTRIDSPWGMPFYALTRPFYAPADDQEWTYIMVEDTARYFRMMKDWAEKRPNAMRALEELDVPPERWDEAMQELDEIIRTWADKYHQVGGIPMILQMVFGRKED

[6] = molecular target: T5, HetR hood domain (Asp219-Asp299), HetR_(Hood) (Anabaena sp. PCC 7120, UniProt P27709 219-299); assay: as above; conditions: both partners purified
T5 construct: HetR of Anabaena sp; PCC 7120, individual hood domain, residues Asp219-Asp299; Entwined dimer in the crystal; four molecules (two dimers) in the asymmetric unit; source: E. coli Rosetta (DE3), purified (Ni-NTA, Superdex 75)
T5 sequence (looked up): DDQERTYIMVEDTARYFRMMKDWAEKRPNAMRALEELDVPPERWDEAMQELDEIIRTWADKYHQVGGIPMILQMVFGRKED

HetR E254A = molecular target: T6, HetR E254A (Anabaena sp. PCC 7120, UniProt P27709 1-299, E254A); assay: as above; conditions: both partners purified
T6 construct: HetR of Anabaena sp; PCC 7120, point mutant made from the plasmid of wild-type HetR; source: E. coli, purified in the same manner as the wild-type protein
T6 sequence (looked up): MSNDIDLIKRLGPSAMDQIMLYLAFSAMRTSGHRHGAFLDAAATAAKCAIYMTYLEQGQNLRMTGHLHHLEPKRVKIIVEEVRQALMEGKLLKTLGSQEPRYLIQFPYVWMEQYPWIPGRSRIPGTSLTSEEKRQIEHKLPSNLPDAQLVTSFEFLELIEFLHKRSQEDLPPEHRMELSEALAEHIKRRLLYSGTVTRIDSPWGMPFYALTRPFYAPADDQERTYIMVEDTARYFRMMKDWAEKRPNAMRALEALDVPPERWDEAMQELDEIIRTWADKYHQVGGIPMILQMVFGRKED

HetR D256A = molecular target: T7, HetR D256A (Anabaena sp. PCC 7120, UniProt P27709 1-299, D256A); assay: as above; conditions: both partners purified
T7 construct: HetR of Anabaena sp; PCC 7120, point mutant made from the plasmid of wild-type HetR; source: E. coli, purified in the same manner as the wild-type protein
T7 sequence (looked up): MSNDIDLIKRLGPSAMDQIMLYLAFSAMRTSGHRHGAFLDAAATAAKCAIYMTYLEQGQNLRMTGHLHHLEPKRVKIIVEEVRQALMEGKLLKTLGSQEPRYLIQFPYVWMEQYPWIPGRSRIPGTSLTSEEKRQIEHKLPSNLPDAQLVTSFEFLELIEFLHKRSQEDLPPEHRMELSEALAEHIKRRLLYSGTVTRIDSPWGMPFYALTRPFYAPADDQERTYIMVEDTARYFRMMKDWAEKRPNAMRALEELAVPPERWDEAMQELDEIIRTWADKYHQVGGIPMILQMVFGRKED

HetR D270A = molecular target: T8, HetR D270A (Anabaena sp. PCC 7120, UniProt P27709 1-299, D270A); assay: as above; conditions: both partners purified
T8 construct: HetR of Anabaena sp; PCC 7120, point mutant made from the plasmid of wild-type HetR; source: E. coli, purified in the same manner as the wild-type protein
T8 sequence (looked up): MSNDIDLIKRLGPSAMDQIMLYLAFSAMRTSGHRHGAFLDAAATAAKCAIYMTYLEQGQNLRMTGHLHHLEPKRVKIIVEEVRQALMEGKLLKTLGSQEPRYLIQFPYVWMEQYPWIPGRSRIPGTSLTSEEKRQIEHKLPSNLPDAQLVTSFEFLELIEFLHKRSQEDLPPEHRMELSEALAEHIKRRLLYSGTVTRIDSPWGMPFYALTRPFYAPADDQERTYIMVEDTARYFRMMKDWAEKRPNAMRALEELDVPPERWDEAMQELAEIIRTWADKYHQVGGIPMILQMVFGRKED

HetR D278A = molecular target: T9, HetR D278A (Anabaena sp. PCC 7120, UniProt P27709 1-299, D278A); assay: as above; conditions: both partners purified
T9 construct: HetR of Anabaena sp; PCC 7120, point mutant made from the plasmid of wild-type HetR; source: E. coli, purified in the same manner as the wild-type protein
T9 sequence (looked up): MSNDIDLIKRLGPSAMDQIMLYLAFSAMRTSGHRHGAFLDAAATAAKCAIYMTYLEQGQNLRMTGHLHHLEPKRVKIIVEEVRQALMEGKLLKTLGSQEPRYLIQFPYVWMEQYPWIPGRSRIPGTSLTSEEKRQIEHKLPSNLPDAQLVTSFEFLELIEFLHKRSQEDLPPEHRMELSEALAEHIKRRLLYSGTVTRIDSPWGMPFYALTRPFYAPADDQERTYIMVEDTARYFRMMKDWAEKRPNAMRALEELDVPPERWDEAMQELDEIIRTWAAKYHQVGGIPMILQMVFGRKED

T2 sequence (P27709 whole entry D270A/D278A): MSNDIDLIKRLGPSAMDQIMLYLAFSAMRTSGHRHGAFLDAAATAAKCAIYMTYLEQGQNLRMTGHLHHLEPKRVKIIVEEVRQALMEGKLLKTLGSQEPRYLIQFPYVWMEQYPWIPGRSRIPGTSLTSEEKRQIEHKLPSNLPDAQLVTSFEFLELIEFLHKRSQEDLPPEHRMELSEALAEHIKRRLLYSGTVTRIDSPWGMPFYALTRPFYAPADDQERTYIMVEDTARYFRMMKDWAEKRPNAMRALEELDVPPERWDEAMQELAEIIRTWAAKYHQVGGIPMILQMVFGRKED
T1 sequence (P27709 whole entry E253A): as the sequence (P27709 whole entry D270A/D278A) above, with E253A, A270D, A278D counted along it

For N=C(N)NCCC[C@H](NC(=O)CNC(=O)[C@H](CO)NC(=O)CNC(=O)[C@H](CCCNC(=N)N)NC(=O)[C@@H](N)CCC(=O)O)C(=O)O [PatS6], which “PatS6-binding affinity towards E253A” value (HetR mutant E253A) is on record?
Its value is “totally abolished the PatS6-binding affinity”.

And the “binding affinity towards D270A/D278A” value [1]?
The value was “no detectable binding affinity”.

What does the source list for “RGSGR [PatS5, pentapeptide RGSGR, C-terminal five residues of PatS]”?
effect of PatS5 binding on DNA-binding capacity of HetR (HetR): may abolish the DNA-binding capacity of HetR; molecules bound per HetR homodimer (HetR; in vitro binding assays): two; sensitivity of E253D mutant strain to PatS5 [2]: drastically reduced sensitivity to PatS5

What does the source list for HetR (from UniProt P27709)?
Kd [3]: 227 nM; Kd [4]: 7 nM

B1: PatS6 (PatS-derived hexapeptide ERGSGR) (peptide)
peptide: ERGSGR
notes: PatS-derived hexapeptide; RGSGR is the C-terminal five residues of PatS of Anabaena sp; PCC 7120; source: synthetic peptide (GL Biochem, Shanghai)
With B1 as the molecule, how does the Kd [5] read?
The Kd was 12 nM.

And the Kd (HetR R223W)?
Its Kd is 2350 nM.

And the Kd [6]?
Its Kd is 24000 nM.

What about the Kd (HetR E254A) of the same molecule?
Its Kd is 91 nM.

What about the Kd (HetR D256A) of the same molecule?
Its Kd is 427 nM.

What about the Kd (HetR D270A) of the same molecule?
The Kd was 2250 nM.

What about the Kd (HetR D278A) of the same molecule?
The Kd was 1630 nM.
